For test [1], the target named is Papain from papaya latex (Sigma) (papaya) (UniProt P00784).
Test [2] has the same target. The source holds these as a separate data set.

Here are results for two substances from patent US20230159659A1.

In turn, “Recombinant human Cystatin SA protein (recombinant CST2, Abcam)” came in with a protease activity (% of papain alone), Protease Assay Kit in test [1] of 64.3%. “Recombinant Human Cystatin SN Protein (recombinant CST1, R&D Systems)” registered a protease activity (OD), Protease Assay Kit in test [2] of 0.0005 OD.
